Measurements published in US20220251170A1 (KOREA INSTITUTE OF SCIENCE AND TECHNOLOGY, published 2022).

Target: T1, human CD47 on the surface of HT29 and Raji tumor cells (human, UniProt Q08722 19-323)
T1 construct: whole, on cells; also called cell surface CD47
Experiment: cell binding assay, flow cytometry, anti-Myc detection (FIG. 15A)
Procedure: Cell binding analysis according to one embodiment of the present invention was carried out by culturing HT29 human colon adenocarcinoma (ATCC), Raji human B cell lymphoma (ATCC) and CT26.CL25 mouse colon cancer cells (ATCC) in RPMI-1640 culture medium supplemented with 10% FBS and 1% antibiotics and the cultures were maintained at 37° C. and 5% CO₂. HT29 and Raji cells were then cultured with the addition of an anti-human CD47 antibody (B6H12.2, Abcam, ab3283) and CT26.CL25 cells were incubated with anti-mouse CD47 antibody (Santa Cruz, sc-12731). For cell binding assays, HT29, Raji and CT26.CL25 cells (1×10⁶) were incubated at 4° C. for 30 minutes with the addition of PBS, exosomes or mSIRPα, respectively. The cells were then incubated with anti-Myc antibodies (1:400, Abcam, ab9106) and detected by the addition of Alexa fluor 488-conjugated secondary antibody (1:800, Jackson ImmunoResearch). The cells were then measured using an Accuri™ C6 flow cytometer (BD Biosciences) and analyzed using FlowJo_V10 software (FlowJo). The binding specificity of SIRPα-exosomes to CD47 was analyzed by block experiments through pre-incubation of cells with anti-human CD47 antibody (1:100, Abcam, ab3283).

T1 sequence (Q08722 19-323): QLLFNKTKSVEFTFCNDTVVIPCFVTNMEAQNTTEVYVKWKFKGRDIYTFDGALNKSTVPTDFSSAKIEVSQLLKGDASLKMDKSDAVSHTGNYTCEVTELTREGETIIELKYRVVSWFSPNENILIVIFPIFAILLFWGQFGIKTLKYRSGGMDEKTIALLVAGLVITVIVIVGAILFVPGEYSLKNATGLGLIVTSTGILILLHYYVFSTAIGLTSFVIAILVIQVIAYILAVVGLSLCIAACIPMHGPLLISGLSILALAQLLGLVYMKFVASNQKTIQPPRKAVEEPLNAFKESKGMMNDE

B1: purified recombinant SIRPα-Myc monomer protein (mSIRPα) (receptor)
chain: EEELQIIQPDKSVLVAAGETATLRCTITSLFPVGPIQWFRGAGPGRVLIYNQRQGPFPRVTTVSDTTKRNNMDFSIRIGNITPADAGTYYCIKFRKGSPDDVEFKSGAGTELSVRAKP
notes: Expressed in bacteria from pET-28a (Nde I-SIRPα variant-Myc-Hind III), purified on Ni-NTA; also called monomeric SIRPα protein; recombinant SIRPα protein; not shown: N-terminal histidine tag from pET-28a; C-terminal Myc tag
  binding result: binds
